Data reported in patent publication US20250136696A1 (HARBOUR BIOMED SHANGHAI, published 2025).

Columns and labels:
Experiment in all cases: ELISA on coated B7 family protein
[1] = biological target: T1, Human B7-DC/PD-L2/CD273 protein, recombinant (Fc tag) (Sino Biological, H10292-H02H) (human, UniProt Q9BQ51 20-219)
T1 construct: Bought
T1 sequence (looked up): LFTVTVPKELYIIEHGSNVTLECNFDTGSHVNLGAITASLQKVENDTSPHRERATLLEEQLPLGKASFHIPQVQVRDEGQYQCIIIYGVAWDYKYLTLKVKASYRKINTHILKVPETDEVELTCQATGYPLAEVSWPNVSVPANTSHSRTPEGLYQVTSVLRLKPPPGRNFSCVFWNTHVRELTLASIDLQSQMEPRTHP
Procedure: (§1) B7 family proteins (see Table 7 for details) were respectively diluted to […] with PBS, added into a 96-well plate (Corning, #9018) at 100 μl/well, and incubated at 4° C. overnight. After the liquid was discarded, the plate was washed 3 times with a PBST buffer (pH 7.4, containing 0.05% tween-20), 250 μl of blocking solution containing 2% BSA was added, and the plate was incubated for 1 hour at 37° C. The blocking solution was discarded, the plate was washed 3 times with PBST buffer (pH 7.4, containing 0.05% Tween-20), the antigen-binding protein to be tested was diluted to 2 concentrations of 10 nM and 1 nM, 100 μl of the diluted antigen-binding protein was added to each well, and the plate was incubated for 1 hour at 37° C., with the isotype antibody as the control. After the plate was washed 3 times with PBST buffer (pH 7.4, containing 0.05% Tween-20), goat anti-human HRP secondary antibody (Invitrogen, #A18805) diluted 5000 times was added, and the plate was incubated at 37° C. for 1 hour in the dark. After the plate was washed 3 times with PBST buffer (pH 7.4, containing 0.05% tween-20), TMB (Biopanda, #TMB-S-003) was added at 100 μl/well, and the plate was placed at room temperature for about 30 minutes in the dark; and a stop solution (BBI life sciences, #E661006-0200) was added to each well at 50 μl/well to stop the reaction, and the absorbance at 450 nm (OD450) was determined in a microplate reader (PerkinElemer, #Enspire).

[2] = biological target: T2, Human PD-L1/B7-H1 protein, His tag (Acro, PD1-H5229) (human, UniProt Q9NZQ7 19-238)
T2 construct: Bought
T2 sequence (Q9NZQ7 19-238 limits assumed): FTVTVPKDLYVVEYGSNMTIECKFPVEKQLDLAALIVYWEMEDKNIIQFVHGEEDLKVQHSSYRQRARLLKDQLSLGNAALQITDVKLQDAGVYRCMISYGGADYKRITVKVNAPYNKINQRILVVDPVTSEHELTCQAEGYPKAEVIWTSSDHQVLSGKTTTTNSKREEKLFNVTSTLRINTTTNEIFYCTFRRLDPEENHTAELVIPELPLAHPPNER
Procedure: as §1

[3] = biological target: T3, B7-H6 /NCR3LG1 protein, human, recombinant (Fc tag) (Sino Biological, 16140-H02H) (human, UniProt Q68D85 25-262)
T3 construct: Bought
T3 sequence (looked up): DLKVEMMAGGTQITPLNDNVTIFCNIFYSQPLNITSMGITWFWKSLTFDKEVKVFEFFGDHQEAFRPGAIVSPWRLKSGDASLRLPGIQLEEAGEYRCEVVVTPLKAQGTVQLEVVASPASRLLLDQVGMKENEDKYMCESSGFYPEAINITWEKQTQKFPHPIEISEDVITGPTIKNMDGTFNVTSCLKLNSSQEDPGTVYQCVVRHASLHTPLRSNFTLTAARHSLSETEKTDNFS
Procedure: as §1

[4] = biological target: T4, Recombinant human B7H4 Fc chimera (R&D, 8870-B7-050) (human, UniProt Q7Z7D3 29-258)
T4 construct: Bought
T4 sequence (looked up): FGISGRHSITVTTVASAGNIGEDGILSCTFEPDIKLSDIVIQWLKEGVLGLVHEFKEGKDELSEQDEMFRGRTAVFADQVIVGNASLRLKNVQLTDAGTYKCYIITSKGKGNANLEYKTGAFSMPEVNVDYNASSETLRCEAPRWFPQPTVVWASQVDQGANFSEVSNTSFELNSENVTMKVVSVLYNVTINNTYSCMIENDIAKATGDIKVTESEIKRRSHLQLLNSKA
Procedure: as §1

[5] = biological target: T5, Recombinant human VISTA/B7H5/PD-1H Fc chimera (R&D, 7126-B7-050) (human, UniProt Q9H7M9 33-194)
T5 construct: Bought
Procedure: as §1

[6] = biological target: T6, Human B7-1/CD80 protein, Fc tag (Acro, B71-H5259) (human, UniProt P33681 35-242)
T6 construct: Bought
T6 sequence (looked up): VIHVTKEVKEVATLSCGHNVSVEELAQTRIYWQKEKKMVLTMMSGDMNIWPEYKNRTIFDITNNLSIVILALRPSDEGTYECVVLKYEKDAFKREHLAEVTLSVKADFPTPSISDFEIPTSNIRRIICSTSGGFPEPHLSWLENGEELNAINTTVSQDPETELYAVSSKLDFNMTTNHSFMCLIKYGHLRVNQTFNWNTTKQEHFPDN
Procedure: as §1

[7] = biological target: T7, Human B7-2/CD86 protein, Fc tag (Acro, CD6-H5257) (human, UniProt P42081 26-247)
T7 construct: Bought
T7 sequence (looked up): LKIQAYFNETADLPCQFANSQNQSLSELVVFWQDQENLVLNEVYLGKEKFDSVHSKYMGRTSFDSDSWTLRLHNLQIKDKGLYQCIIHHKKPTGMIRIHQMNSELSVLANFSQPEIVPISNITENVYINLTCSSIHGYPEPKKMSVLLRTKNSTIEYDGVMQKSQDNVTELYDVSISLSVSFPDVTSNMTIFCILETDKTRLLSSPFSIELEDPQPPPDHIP
Procedure: as §1

[8] = biological target: T8, B7-H3/CD276 protein, human, recombinant (ECD, Fc tag) (Sino Biological, 11188-H02H) (human, UniProt Q5ZPR3 29-466)
T8 construct: extracellular domain; Bought
T8 sequence (looked up): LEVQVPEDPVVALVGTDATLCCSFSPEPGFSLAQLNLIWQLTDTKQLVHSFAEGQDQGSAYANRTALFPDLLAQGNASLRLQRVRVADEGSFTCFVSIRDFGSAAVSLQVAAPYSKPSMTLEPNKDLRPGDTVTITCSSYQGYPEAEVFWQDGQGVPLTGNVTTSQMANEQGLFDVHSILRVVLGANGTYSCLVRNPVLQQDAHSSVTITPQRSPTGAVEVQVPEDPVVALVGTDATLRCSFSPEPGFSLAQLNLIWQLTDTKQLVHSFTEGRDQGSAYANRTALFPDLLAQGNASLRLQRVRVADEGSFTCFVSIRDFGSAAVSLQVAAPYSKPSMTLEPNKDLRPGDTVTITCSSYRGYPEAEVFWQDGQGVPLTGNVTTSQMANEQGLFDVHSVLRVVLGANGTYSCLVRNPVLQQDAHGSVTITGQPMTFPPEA
Procedure: as §1

Measured: binding result

B1: PR004263 (antibody, human IgG1, kappa, L234A L235A)
heavy: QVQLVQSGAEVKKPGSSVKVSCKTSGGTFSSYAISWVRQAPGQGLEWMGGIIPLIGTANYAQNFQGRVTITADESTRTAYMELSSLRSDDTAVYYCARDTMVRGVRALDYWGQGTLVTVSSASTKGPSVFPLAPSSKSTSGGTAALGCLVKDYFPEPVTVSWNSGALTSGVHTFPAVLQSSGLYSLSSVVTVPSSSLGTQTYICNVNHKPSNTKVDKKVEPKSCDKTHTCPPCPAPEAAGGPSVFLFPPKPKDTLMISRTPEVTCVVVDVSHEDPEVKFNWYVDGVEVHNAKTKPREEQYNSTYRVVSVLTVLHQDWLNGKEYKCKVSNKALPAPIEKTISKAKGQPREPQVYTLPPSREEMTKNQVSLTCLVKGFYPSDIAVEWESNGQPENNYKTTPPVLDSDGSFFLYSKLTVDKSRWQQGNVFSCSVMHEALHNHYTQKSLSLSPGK
light: DIQLTQSPSFLSASVGDRVTITCRASQGISSYFAWYQQKPGKAPKLLIYAASTLQSGVPSRFSGSGSGTEFTLTISSLQPEDFATYYCQHLNRYPWTFGQGTKVEIKRTVAAPSVFIFPPSDEQLKSGTASVVCLLNNFYPREAKVQWKVDNALQSGNSQESVTEQDSKDSTYSLSSTLTLSKADYEKHKVYACEVTHQGLSSPVTKSFNRGEC
notes: Variant of PR003264; Human IgG1 with LALA mutation in Fc
no binding (tested: 10 nM): [1] | [2] | [3] | [4] | [5] | [6] | [7] | [8]

B2: PR004260 (antibody, human IgG1, kappa, L234A L235A)
heavy: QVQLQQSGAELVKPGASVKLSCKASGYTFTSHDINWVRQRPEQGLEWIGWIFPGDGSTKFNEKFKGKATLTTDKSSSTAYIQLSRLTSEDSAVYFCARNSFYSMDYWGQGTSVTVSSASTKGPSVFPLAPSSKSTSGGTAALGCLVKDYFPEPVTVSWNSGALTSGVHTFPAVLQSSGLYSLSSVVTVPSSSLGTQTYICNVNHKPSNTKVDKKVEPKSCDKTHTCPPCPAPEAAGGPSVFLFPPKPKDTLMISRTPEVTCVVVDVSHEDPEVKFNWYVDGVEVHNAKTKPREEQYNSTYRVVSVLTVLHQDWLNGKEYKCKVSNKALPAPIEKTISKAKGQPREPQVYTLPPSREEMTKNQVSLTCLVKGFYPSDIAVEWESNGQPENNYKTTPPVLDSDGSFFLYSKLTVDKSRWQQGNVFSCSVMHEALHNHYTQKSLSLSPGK
light: DIVMSQSPSSLAVSAGEKVTMSCKSSQSLLNSRTRKNQLAWYQQKPGQSPKLLIYWASTRESGVPDRFTGSGSGTDFTLTISSVQAEDLAVYYCKQSYNLRTFGGGTKLEIKRTVAAPSVFIFPPSDEQLKSGTASVVCLLNNFYPREAKVQWKVDNALQSGNSQESVTEQDSKDSTYSLSSTLTLSKADYEKHKVYACEVTHQGLSSPVTKSFNRGEC
notes: Variant of PR003181; Human IgG1 with LALA mutation in Fc
no binding (tested: 10 nM): [1] | [2] | [3] | [4] | [5] | [6] | [7] | [8]
